Measurements as given in the RNAGym collection of RNA variant scans (doi:10.1073/pnas.2313332121).
Fewer inactive variants are shown than the library holds.

B1: TPR 5TU (parent)
chain: GGAUCUUCUCGAUCUAACAAAAAAGACAAAUCUGCCACAAAGCUUGAGAGCAUCUUCGGAUGCAGAGGCGGCAGCCUUCGGUGGCGCGAUAGCGCCAACGUUCUCAACUAUGACACGCAAAACGCGUGCUCCGUUGAAUGGAGUUUAUCAUG

Variants of: B1
Experiment: polymerase ribozyme fitness, log enrichment relative to wild type (log ratio); higher = more active; in vitro selection for triplet polymerase activity
Outline: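 Each subunit of a heterodimeric triplet polymerase ribozyme was mutagenized into a library by PCR, transcribed, and subjected to one round of in vitro selection, run in triplicate. Libraries were annealed with a biotinylated primer, the partner subunit and triplets, incubated frozen at −7 °C, and extended constructs were gel-excised, captured on streptavidin beads and recovered by RT-PCR. Input and output libraries were sequenced on Illumina, keeping genotypes with ≥10 input reads and ≥1 read per output. Fitness is log base 2 of genotype enrichment divided by wild-type enrichment, from inverse-variance-weighted replicate averages.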

Variant | polymerase ribozyme fitness (log ratio)
C27A C35A G84U C103G | ≤ -4.2
A26G C43U U45A G59C G88A | ≤ -4.2
A26C C32G C57G | ≤ -4.2
A26C G65A C79A A89U A97C G117A | ≤ -4.2
C27A A52G G128U C129U C131G A147U | ≤ -4.2
C27A C79A G84A G86U | ≤ -4.2
A26U C75A U82G G92U G100A A107U U144A | ≤ -4.2
G25U G42A C87G | ≤ -4.2
C27A A39G U53C C95A A121U G136C | ≤ -4.2
A26G U33C C85U | ≤ -4.2
A26G A29C C79A G100A | ≤ -4.2
G25U C69A U82G A89G C125U C149U | ≤ -4.2
G25C U31C C32G U55A C75G C76U C79A A115G A120C C129A | ≤ -4.2
A26C U82A A137G | -2.93
G25U A49G G59U C99A | ≤ -4.2
A26U G42U U44A U55A G59U C103G A119G A120U G140U | ≤ -4.2
A26C C32G C54U C87G C95U | -3.91
A26U C51A C54A C57U U90C C93G | ≤ -4.2
G25U G81A G94U A120U G141C | -3.76
A26G C36A | ≤ -4.2
A26U G46U A47U G74C C79G G92U G140A | ≤ -4.2
A26U A49G C93U G124C U135G A138G | ≤ -4.2
G25C C79A G84U A97C | ≤ -4.2
C27A C75U C93G A115U | ≤ -4.2

Variant | polymerase ribozyme fitness (log ratio)
A26C U53A U56A C114U | -3.79
G25C G46A U144C | -4.12
A26C A52C C69U G100A C125A | ≤ -4.2
A26U U61A G71C C79U A98G U151A | ≤ -4.2
G25C G68C C93A C99G C114U | ≤ -4.2
A26U C35U C87A G124C | ≤ -4.2
A26U A40U A91U A121U | ≤ -4.2
A26U G65A A66U U77C C96U A106U A107U C132U U139A G143C U148A | ≤ -4.2
A26U G80A A98C U101G | -3.73
A26U A41G G62U | -1.6
G25U C54A G80A | -4.05
A26U G50A A64G U101G G141A | ≤ -4.2
G25C U56G G84A A89G U130C | -2.97
A26C A52U A89C | -3.85
C27A C43A A52U U55A U56A G92U | ≤ -4.2
A26U C51U C72U A73U C85A C99G G100C U111G | ≤ -4.2
A26C G88U G92U G117U | ≤ -4.2
A26C A91G A121C U139C | ≤ -4.2
A26C G92C | -2.71
G25U U61G | -2.3
G25U U61A | -3.25
G25C G46C C85G C87U G124C C125U U146C | ≤ -4.2
G25U A39U U53A C76G U145A | ≤ -4.2
G25U U55A C85A G140C | ≤ -4.2

Variant | polymerase ribozyme fitness (log ratio)
A26U A40C G68C G71U U82A A119C C125A A150C | ≤ -4.2
G25U C38U A47U U56G U61A G65C C79G C103G U134A | ≤ -4.2
G25C C54A C105U | -3.21
A26G A52G U90G U135A G136C | ≤ -4.2
A26G G92U | -3.31
A26G G59A A89C C105U | ≤ -4.2
A26C A47G C63A A91C A97U A98G A138U | ≤ -4.2
A26U C85U A115G | -3.36
A26U G42U | ≤ -4.2
A26G C69U C79U C87U A91U | ≤ -4.2
A26U C27U U33A G34A U56A C57U C76A C85G G88A U127C | ≤ -4.2
G25U G46C G50A G62A C96U | ≤ -4.2
A26C U78C G88A C108G C114G C149G | ≤ -4.2
G25U C85U U101C | -2.41
A26U A41C G71U C95A | ≤ -4.2
G25U G48A G84A C96G | -4.04
A26C A30U C79U | ≤ -4.2
A26C C27G C51G G83C A89C A138G A142U | ≤ -4.2
G25U A30C A47C C99G U101G C105A | ≤ -4.2
A26U C103A C114U | ≤ -4.2
A26U A91G G140C C149A | ≤ -4.2
A26G A89C A97C G143C | ≤ -4.2
A26U C118U | -0.616
A26U C118A | -2.33

Variant | polymerase ribozyme fitness (log ratio)
C27A A47U A106U U145A | ≤ -4.2
A26U C35G C69A G92A C96A A97G A120C | ≤ -4.2
A26U G59A G83A C87G C93G A97G U104C U139C | ≤ -4.2
A26U G141U | -1.94
G25U G59A G62C C116U U145A | -1.79
G25U G50C C87G G136U | ≤ -4.2
G25U G84U | -3.64
C27A A28U C38U A39U A47U | ≤ -4.2
A26C C32A U53G U56A C75U U104A U111C A120G | ≤ -4.2
G25U C85G | -3.79
G25U C85A | -3.88
A26U C54A C93A A138C G141C | ≤ -4.2
A26U A37C A47G C85U U90A U145A U146C | ≤ -4.2
G25U C35A A41G C54U C87U C95U | -3.99
A26C C76A | -3.75
A26C G92C U104C C108U A115C | ≤ -4.2
A26C C43U A52G G71C A97G | ≤ -4.2
A26G A49G C57U G59A C72A | ≤ -4.2
G25U A89C | -3.41
A26U A49U C87A U134G | ≤ -4.2
A26C U44A U55G G86A G88C | ≤ -4.2
A26G C38A A60U A64C C76U | ≤ -4.2
C27A A30U U44A C57A A97G A98U A119C A120G G128A | ≤ -4.2
A26G C95U C96U | -4.16

Variant | polymerase ribozyme fitness (log ratio)
A26C A47C A52C G58C G71A G100C C116A | ≤ -4.2
G25U G83A C95A A138U U139C | ≤ -4.2
A26U C35U A47C C54G A64G A66U C93A A142G | ≤ -4.2
A26U A30U A37C U61A A66C G67C C69U C87A C105A C125U | ≤ -4.2
A26C A41C C57G | -3.4
A26U U33A A47G G62A G94U C105U A110U | ≤ -4.2
G25C C72U A91G A119U U127A | ≤ -4.2
A26U C51U A64U C125U | ≤ -4.2
A26U C96U C116G | -1.18
A26U C36U U44A C57A G68C C118A U135G | ≤ -4.2
A26U C93U A122U | -2.76
A26C C85U | -1.86
A26C A41C A49C G62C A138G | ≤ -4.2
A26C G34C A52C C75A G80C | ≤ -4.2
A26G A49C A89U G92A U102G G140U | ≤ -4.2
A26U C85U C105U A142C | -3.69
A26C U144G | -0.859
A26C U144C | -2.23
A26C C36A U44G U55A G140C | -4.19
A26G U77A C87U A89C | ≤ -4.2
G25U C35G A40G A47U A91C A107G G133C | ≤ -4.2
G25U G83A | -3.4
A26U G59A C87G | ≤ -4.2
G25C C76U C79G C93A C118U | ≤ -4.2

Variant | polymerase ribozyme fitness (log ratio)
G25U C76U G94C A120G | -2.88
G25C U33A C69G G71A | ≤ -4.2
A26U U56A | -2.17
A26C C35U U55A C76U C87G G92U A98G | -3.11
A26U G81A | -1.66
A26U C54U C95U | -1.76
A26U U55A G74A G92A A110U G136A | ≤ -4.2
G25C U31A C96G | -1.31
G25U G42A A49C G80A C85G C95U C103A | ≤ -4.2
G25U A52C U90C C95U U111A U135A U151G | ≤ -4.2
G25C C85U A89U U135G | ≤ -4.2
A26U C96U | -1.62
A26U G48C A49U A64C U90G A137G | -4.11
A26C | -1.49
A26G | -2.11
A26U | -1.21
A26C A49C | ≤ -4.2
G25U C99U A119C A120G | -3.26
A26U A60U U111G G141U | -3.78
A26U A28U C32A A52U A73U A91U G92A A113G U148A G152U | ≤ -4.2
G25U C96A A142G | -4.05
G25U C87U C93G A138U | ≤ -4.2
A26U C32G U45C G50C U53G G84A C99U A137G | ≤ -4.2
A26U A37C C95G A107C G152U | ≤ -4.2

Variant | polymerase ribozyme fitness (log ratio)
A26C G83C | -2.82
G25U G46C G50C A66G U90C G100C U104A U146C G152A | ≤ -4.2
G25U C69G G83U C95U | -3
A26U C93U | -2.67
G25U G50C U77A C87U A107G | ≤ -4.2
A26U G42C C93G A115U | ≤ -4.2
C27A C54U A91C G94C | ≤ -4.2
A26C A47C U77C U102C G117C | ≤ -4.2
A26U A49G C95U | -3.28
A26C C57A A60C G88A U109G A110G C118G | -3.98
A26G A28G C87A C105G C108U C125A | ≤ -4.2
A26C C27U | -2.8
C27A A37U A91C | -4.17
A26G A30C A39C A47U C76U C93U A97G G133A G140U G141A | -4.02
A26U G68C G86U C103G A115C | ≤ -4.2
A26G U55A | -2.03
C27A A49U C87A U134C G141A | ≤ -4.2
G25U U45A | ≤ -4.2
G25U A29U C43A A64U C93U C131U | ≤ -4.2
A26C G50U C54U C96G | -3.92
G25U C32U C36A C85U C114U C129U U134C | ≤ -4.2
A26U A49C U111G | ≤ -4.2
A26C G100U | -4
